Measured values from patent US20230181753A1 (INSERM INSTITUT NATIONAL DE LA SANTE ET DE LA RECHERCHE …, published 2023).
Values belong to the binder of their own block, whether it stands above or below them.

Assays:
[1] = substrate: ICOS (Inducible T cell costimulator) (UniProt Q9Y6W8); experiment: flow cytometry, staining of MJ cells
[2] = substrate: ICOS (Inducible T cell costimulator) (UniProt Q9Y6W8); experiment: flow cytometry, staining of MyLa cells
[3] = substrate: ICOS (Inducible T cell costimulator) (UniProt Q9Y6W8); experiment: flow cytometry, staining of HUT78 cells
[4] = molecular target: T1, ICOS (Inducible T cell costimulator) (UniProt Q9Y6W8 21-199, limits assumed); experiment: cell-based or functional assay
T1 sequence (looked up): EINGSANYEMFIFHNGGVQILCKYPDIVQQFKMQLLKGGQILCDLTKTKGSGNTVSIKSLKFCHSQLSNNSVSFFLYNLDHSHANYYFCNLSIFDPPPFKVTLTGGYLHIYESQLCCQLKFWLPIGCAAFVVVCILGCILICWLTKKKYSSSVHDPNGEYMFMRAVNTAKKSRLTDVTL

MFI ratio [1]: 96
MFI ratio [2]: 144
MFI ratio [3]: 4.5
B1: 314.8 mAb (antibody, V domains shown)
VH: QVQLQQPGTELMKPGASVKLSCKASGYTFTTYWMHWVKQRPGQGLEWIGEIDPSDSYVNYNQNFKGKATLTVDKSSSTAYIQLSSLTSEDSAVYFCARSPDYYGTSLAWFDYWGQGTLVTVST
VL: DIVMTQAAPSVPVTPGESVSISCRSSKSPLHSNGNIYLYWFLQRPGQSPQLLIYRMSNLASGVPDRFSGSGSGTTFTLKISRVEAEDVGVYYCMQHLEYPYTFGGGTKLEIK

B2: anti-ICOS-PBD ADC (antibody, V domains shown)
VH: B1 VH
VL: B1 VL
modifications: coupled to pyrrolobenzodiazepine (PBD); site and linker not stated
IC50, cell viability (alamarBlue), HUT78 cells [4]: 9 ng/mL
IC50, cell viability (alamarBlue), Jurkat-ICOS cells [4]: 0.7 ng/mL
IC50, cell viability (alamarBlue), MJ cells [4]: 0.8 ng/mL
IC50, cell viability (alamarBlue), MyLa cells [4]: 1.2 ng/mL

B3: anti-ICOS-MMAE ADC (anti-ICOS 314.8-MMAE) (antibody, V domains shown)
VH: B1 VH
VL: B1 VL
modifications: coupled to MMAE; site and linker not stated
IC50, cell viability (alamarBlue), Jurkat-ICOS cells [4]: 6.7 ng/mL
IC50, cell viability (alamarBlue), MJ cells [4]: 36.2 ng/mL
IC50, cell viability (alamarBlue), MyLa cells [4]: 8.2 ng/mL
